How the values were obtained:
[1] = target: T1, GAL4 DBD (UniProt P04386 1-147, limits assumed); test: coimmunoprecipitation of 35S-IPAS with anti-GAL4 antibody, in vitro translated proteins
T1 construct: Control in the coprecipitation assay

[2] = target: T2, GAL4-HIF-1α/526-826 (UniProt P04386 1-147; Q16665 526-826); test: as above
T2 construct: In vitro translated

B1: Inhibitory PAS Domain Protein (IPAS), in vitro translated (other)
chain: MALGLQRVRSNTELRKEKSRDAARSRRSQETEVLYQLAHTLPFARGVSAHLDKASIMRLTISYLRMHRLCAAGGKRGRATGRLLPEGPGGFRHGTHRRGRHGLPVGKCQQAPGPQSVDLCSSSLIHNPTPGTNFSLELIGHSIFDFIHPCDQEELQDALTPRPNLSKKKLEAPTERHFSLRMKSTLTSRGRTLNLKAATWKVLHCSGHMRAYKPPAQTSPAGSPRSEPPLQCLVLICEAIPQLPFHDGATLGLPQEKTPISTLFTPLWKALLCLVKRWPVQVLQGKGTESSLPSWVLWALNRKNCPG
modifications: 35S-labeled methionine (in the coprecipitation assay)
notes: Polypeptide of 307 amino acids; generated by in vitro translation in rabbit reticulocyte lysate; also called mouse IPAS; mIPAS
Q: Does B1 bind [1]?
A: no binding

Q: Does B1 bind [2]?
A: no binding

Source: US20020165140A1 (ANGIOGENETICS SWEDEN, published 2002)
